Results published in paper PMC10907169.
“And” between values parts separate entries of the source, which are not always exact repeats. Equal values may be shown once.

Biological target: T1, Full-length human KIF5A heavy chain (WT), C-terminal FLAG tag (human), Q12840
T1 chain: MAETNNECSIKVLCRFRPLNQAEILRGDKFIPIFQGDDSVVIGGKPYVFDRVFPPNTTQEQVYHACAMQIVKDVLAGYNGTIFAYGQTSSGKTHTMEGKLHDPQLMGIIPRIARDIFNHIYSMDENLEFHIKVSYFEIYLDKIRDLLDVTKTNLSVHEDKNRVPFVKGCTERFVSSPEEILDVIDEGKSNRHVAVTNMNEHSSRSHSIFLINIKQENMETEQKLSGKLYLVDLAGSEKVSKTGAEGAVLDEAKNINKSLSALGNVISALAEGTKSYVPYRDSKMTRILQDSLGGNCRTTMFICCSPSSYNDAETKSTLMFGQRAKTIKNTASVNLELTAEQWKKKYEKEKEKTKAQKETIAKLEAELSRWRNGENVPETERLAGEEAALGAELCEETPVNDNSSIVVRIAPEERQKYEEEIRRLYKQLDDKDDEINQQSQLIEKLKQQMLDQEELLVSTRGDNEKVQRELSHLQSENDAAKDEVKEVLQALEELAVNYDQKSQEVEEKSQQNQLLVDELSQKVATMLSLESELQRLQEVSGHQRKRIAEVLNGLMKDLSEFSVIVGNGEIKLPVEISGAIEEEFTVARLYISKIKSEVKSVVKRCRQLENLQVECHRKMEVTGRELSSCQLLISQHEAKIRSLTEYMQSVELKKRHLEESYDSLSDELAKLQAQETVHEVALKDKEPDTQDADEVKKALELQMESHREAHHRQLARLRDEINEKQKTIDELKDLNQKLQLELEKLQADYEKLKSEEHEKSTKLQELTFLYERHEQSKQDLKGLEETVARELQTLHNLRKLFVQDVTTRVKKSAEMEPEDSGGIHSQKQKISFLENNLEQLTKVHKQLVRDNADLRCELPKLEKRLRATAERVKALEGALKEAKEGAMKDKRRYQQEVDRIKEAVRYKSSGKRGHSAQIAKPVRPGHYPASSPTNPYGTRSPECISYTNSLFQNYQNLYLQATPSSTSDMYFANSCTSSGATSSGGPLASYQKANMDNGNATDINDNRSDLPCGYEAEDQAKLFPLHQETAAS
Assay: mass photometry; single-molecule landing assay, Refeyn OneMP, 25 nM KIF5A, room temperature (~23 °C); results say low salt buffer (150 mM KCl), methods name PBS; monomer to dimer, and dimers to tetramer
Details: remark: other sources report otherwise

B1: Full-length human KIF5A heavy chain (WT), C-terminal FLAG tag, Q12840 1-1032 (natural protein)
chain: MAETNNECSIKVLCRFRPLNQAEILRGDKFIPIFQGDDSVVIGGKPYVFDRVFPPNTTQEQVYHACAMQIVKDVLAGYNGTIFAYGQTSSGKTHTMEGKLHDPQLMGIIPRIARDIFNHIYSMDENLEFHIKVSYFEIYLDKIRDLLDVTKTNLSVHEDKNRVPFVKGCTERFVSSPEEILDVIDEGKSNRHVAVTNMNEHSSRSHSIFLINIKQENMETEQKLSGKLYLVDLAGSEKVSKTGAEGAVLDEAKNINKSLSALGNVISALAEGTKSYVPYRDSKMTRILQDSLGGNCRTTMFICCSPSSYNDAETKSTLMFGQRAKTIKNTASVNLELTAEQWKKKYEKEKEKTKAQKETIAKLEAELSRWRNGENVPETERLAGEEAALGAELCEETPVNDNSSIVVRIAPEERQKYEEEIRRLYKQLDDKDDEINQQSQLIEKLKQQMLDQEELLVSTRGDNEKVQRELSHLQSENDAAKDEVKEVLQALEELAVNYDQKSQEVEEKSQQNQLLVDELSQKVATMLSLESELQRLQEVSGHQRKRIAEVLNGLMKDLSEFSVIVGNGEIKLPVEISGAIEEEFTVARLYISKIKSEVKSVVKRCRQLENLQVECHRKMEVTGRELSSCQLLISQHEAKIRSLTEYMQSVELKKRHLEESYDSLSDELAKLQAQETVHEVALKDKEPDTQDADEVKKALELQMESHREAHHRQLARLRDEINEKQKTIDELKDLNQKLQLELEKLQADYEKLKSEEHEKSTKLQELTFLYERHEQSKQDLKGLEETVARELQTLHNLRKLFVQDVTTRVKKSAEMEPEDSGGIHSQKQKISFLENNLEQLTKVHKQLVRDNADLRCELPKLEKRLRATAERVKALEGALKEAKEGAMKDKRRYQQEVDRIKEAVRYKSSGKRGHSAQIAKPVRPGHYPASSPTNPYGTRSPECISYTNSLFQNYQNLYLQATPSSTSDMYFANSCTSSGATSSGGPLASYQKANMDNGNATDINDNRSDLPCGYEAEDQAKLFPLHQETAAS
- stoichiometry N: 2 and 4
